According to patent US7371828:
Numbering of substitutions follows the chain as printed. In names and notes the source's numbering stands.

Molecular target: T1, MBP from bovine brain (Sigma), P02687
T1 chain: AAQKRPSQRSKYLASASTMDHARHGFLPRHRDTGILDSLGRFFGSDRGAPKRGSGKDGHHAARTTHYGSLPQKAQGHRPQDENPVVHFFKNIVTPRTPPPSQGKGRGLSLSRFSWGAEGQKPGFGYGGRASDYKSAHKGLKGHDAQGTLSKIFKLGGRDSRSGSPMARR

B1: human ERK5 (hERK5) wild type protein (protein)
chain: MSSPPPGGSGFYRQEVTKTAWEVRAVYRDLQPVGSGAYGAVCSAVDGRTGAKVAIKKLYRPFGSELFAKLAYRELRLLKHMRHENVIGLLDVFTPDETLDDFTDFYLVMPFMGTDLGKLMKHEKLGEDRIQFLVYQMMKGLRYIHAAGIIHRDLKPGNLAVNEDCELKILDFGLARQADSEMTGYVVTRWYRAPEVILNWIAYTQTVDIWSVGCIMAEMITGKTLFKGSDHLDQLKEIMKVTGTPPAEFVQRLQSDEAKNYMKGLPELEKKDFASILTNASPLAVNLLEKMLVLDADIRLTAGEFLSHPYFESLHDTEDEPQVQKYDDSFDYFDRTLDEWKPCYLQRGAQLQASPAAGGQGLQGDASVKISGLRGGSEDHLHLPPERGLSLPP
MBP kinase activity (32P incorporation in MBP-containing polyacrylamide gel): A predominant signal is observed at 56 kD; A weaker signal at the position of the 44/46 kD bands

B2: hERK5 Y185F mutant (protein)
chain: B1 chain with Y185F
MBP kinase activity (32P incorporation in MBP-containing polyacrylamide gel): the lack of ^32P incorporation in lanes 5 and 6 | MBP phosphorylation assay: this mutant is indeed kinase negative
